B1: BD56-595 (antibody, V domains shown)
VH: QITLKESGPTLVKPTQTLTLTCTFSGFSITTAGVGVGWIRQPPGKALEWLALIYWDGDRRYSPSLKNRVDITTDISKNQVVLTMTNMAPVDTATYYCAQHTIDMILDYWGQGTLVTVSS
VL: QSALTQPPSASGSPGQSVTISCTATSSDVGAYNYVSWYQQHPGKAPKLMIYEVNKRPSGVPDRFSGSKSGNTASLTVSGLQAEDEADYYCSSYTDNIVFGTGTRVTVL
notes: heavy chain of BD56-595 (IGHV2-5*02, D56), not modified; light chain of BD56-595; IgG1; source: Expi 293, transfected, purified (protein A)
B2: BD57-028 (antibody, V domains shown)
VH: QITLKESGPTLVKPTQTLTLTCTFSGFSLSASGEGMGWIRQPPGKALEWLALIYWDADERYSPSLRSRLTITKDTSKNQVVLKMTNMNPVDTATYYCAHHSITTVVDYWGQGMLVTVSS
VL: QSALTQPASVSGSPGQSITISCTGTISDVGAFNYVSWYQQHPGRAPKLIIYDVSTRPSGISIRFSGSKSGNTASLTISGLQPEDEADYYCSSYSHTSLVFGTGTKVTVL
notes: heavy chain of BD57-028 (IGHV2-5*02, D56), not modified; light chain of BD57-028; IgG1; source: Expi 293, transfected, purified (protein A)
B3: XGv-265 (antibody, V domains shown)
VH: QITLKESGPTLVKPTQTLTLTCNFSGFSLNTYGVGVGWIRQPPGKALEWLALIYWDGDERYGPFFKNKVTIAKDTSKNQVVLTMTNMDPVDTATYYCARHLIPTIFDYWGQGTLVTVSS
VL: QSALTQPASVSGSPGQSITISCTGTSSDVGGSNYVSWYQHHPDRAPKLLIYEVTNRPSGVSNRFSGSKSANTASLTISGLQAEDEADYYCSSYTTTSTHILFGGGTKLTV
notes: heavy chain of XGv-265 (IGHV2-5*02, D56), not modified; light chain of XGv-265; IgG1; source: Expi 293, transfected, purified (protein A)
B4: BD56-1290 (antibody, V domains shown)
VH: QITLKESGPTLVKPTQTLTLTCTFSGFSLSTSGVGVGWIRQPPGKALEWLALIYWDDDSRYSPSLKTRLTITKDTSKNQVVLTLTNMDPVDTATYYCGHFTIDMIVGYWGQGTLVTVSS
VL: QSALTQPASVSGSPGQSITISCTATSIDVGAFHYVSWYQHHPGKAPKLIIFDVTNRPSGVSNRFSGSKSGNTASLTISGLQAEDEADYYCSSYTDSTVVFGGGTKLTVL
notes: heavy chain of BD56-1290 (IGHV2-5*02, D56), not modified; light chain of BD56-1290; IgG1; source: Expi 293, transfected, purified (protein A)
B5: LY-CoV1404 (antibody, V domains shown)
VH: QITLKESGPTLVKPTQTLTLTCTFSGFSLSISGVGVGWLRQPPGKALEWLALIYWDDDKRYSPSLKSRLTISKDTSKNQVVLKMTNIDPVDTATYYCAHHSISTIFDHWGQGTLVTVSS
VL: QSALTQPASVSGSPGQSITISCTATSSDVGDYNYVSWYQQHPGKAPKLMIFEVSDRPSGISNRFSGSKSGNTASLTISGLQAEDEADYYCSSYTTSSAVFGGGTKLTVL
notes: heavy chain of LY-CoV1404 (IGHV2-5*02, D56), not modified; variable region in PDB 7MMO; light chain of LY-CoV1404; IgG1; source: Expi 293, transfected, purified (protein A)

Each binder was assayed against T1, SARS-CoV-2 WT RBD (SARS-CoV-2, WT (ancestral) strain, UniProt P0DTC2) (assay: BLI; antibody (IgG1, 11 μg/mL) loaded on AHC2 biosensor to about 1.5 nm; RBD in solution, association 300 s, dissociation 600 s; PBS-TB (PBS, 0.02% v/v Tween-20, 0.1% w/v BSA); 25°C; 1,000 rpm; binding response less than 0.1 considered non-binding). Conditions: both partners purified.
T1 construct: also called wild-type L452 RBD

Binder | binding result
B1 | binds
B2 | binds
B3 | binds
B4 | binds
B5 | binds

Source: paper PMC11746035 (Frontiers in Immunology, 2024)
